{
  "source": "paper doi:10.1101/2021.06.30.450611",
  "data": [
    {"molecular_target": "Taxol-stabilised microtubules assembled from pig tubulin (single molecule motility assay) (pig)", "experiment": "single molecule TIRF motility assay", "units": {"dwell time": "s"}, "values": [
      {"binder": "full-length recombinant human KIF1C-GFP (wildtype) (natural protein) MAGASVKVAVRVRPFNARETSQDAKCVVSMQGNTTSIINPKQSKDAPKSFTFDYSYWSHTSTEDPQFASQQQVYRDIGEEMLLHAFEGYNVCIFAYGQTGAGKSYTMMGRQEPGQQGIVPQLCEDLFSRVSENQSAQLSYSVEVSYMEIYCERVRDLLNPKSRGSLRVREHPILGPYVQDLSKLAVTSYADIADLMDCGNKARTVAATNMNETSSRSHAVFTIVFTQRCHDQLTGLDSEKVSKISLVDLAGSERADSSGARGMRLKEGANINKSLTTLGKVISALADMQSKKRKSDFIPYRDSVLTWLLKENLGGNSRTAMIAALSPADINYEETLSTLRYADRTKQIRCNAIINEDPNARLIRELQEEVARLRELLMAQGLSASALEGLKTEEGSVRGALPAVSSPPAPVSPSSPTTHNGELEPSFSPNTESQIGPEEAMERLQETEKIIAELNETWEEKLRKTEALRMEREALLAEMGVAVREDGGTVGVFSPKKTPHLVNLNEDPLMSECLLYHIKDGVTRVGQVDMDIKLTGQFIREQHCLFRSIPQPDGEVVVTLEPCEGAETYVNGKLVTEPLVLKSGNRIVMGKNHVFRFNHPEQARLERERGVPPPPGPPSEPVDWNFAQKELLEQQGIDIKLEMEKRLQDLENQYRKEKEEADLLLEQQRLYADSDSGDDSDKRSCEESWRLISSLREQLPPTTVQTIVKRCGLPSSGKRRAPRRVYQIPQRRRLQGKDPRWATMADLKMQAVKEICYEVALADFRHGRAEIEALAALKMRELCRTYGKPDGPGDAWRAVARDVWDTVGEEEGGGAGSGGGSEEGARGAEVEDLRAHIDKLTGILQEVKLQNSSKDRELQALRDRMLRMERVIPLAQDHEDENEEGGEVPWAPPEGSEAAEEAAPSDRMPSARPPSPPLSSWERVSRLMEEDPAFRRGRLRWLKQEQLRLQGLQGSGGRGGGLRRPPARFVPPHDCKLRFPFKSNPQHRESWPGMGSGEAPTPLQPPEEVTPHPATPARRPPSPRRSHHPRRNSLDGGGRSRGAGSAQPEPQHFQPKKHNSYPQPPQPYPAQRPPGPRYPPYTTPPRMRRQRSAPDLKESGAAV", "dwell time": 36.3},
      {"binder": "full-length recombinant human KIF1C(R169W)-GFP (natural protein) MAGASVKVAVRVRPFNARETSQDAKCVVSMQGNTTSIINPKQSKDAPKSFTFDYSYWSHTSTEDPQFASQQQVYRDIGEEMLLHAFEGYNVCIFAYGQTGAGKSYTMMGRQEPGQQGIVPQLCEDLFSRVSENQSAQLSYSVEVSYMEIYCERVRDLLNPKSRGSLRVWEHPILGPYVQDLSKLAVTSYADIADLMDCGNKARTVAATNMNETSSRSHAVFTIVFTQRCHDQLTGLDSEKVSKISLVDLAGSERADSSGARGMRLKEGANINKSLTTLGKVISALADMQSKKRKSDFIPYRDSVLTWLLKENLGGNSRTAMIAALSPADINYEETLSTLRYADRTKQIRCNAIINEDPNARLIRELQEEVARLRELLMAQGLSASALEGLKTEEGSVRGALPAVSSPPAPVSPSSPTTHNGELEPSFSPNTESQIGPEEAMERLQETEKIIAELNETWEEKLRKTEALRMEREALLAEMGVAVREDGGTVGVFSPKKTPHLVNLNEDPLMSECLLYHIKDGVTRVGQVDMDIKLTGQFIREQHCLFRSIPQPDGEVVVTLEPCEGAETYVNGKLVTEPLVLKSGNRIVMGKNHVFRFNHPEQARLERERGVPPPPGPPSEPVDWNFAQKELLEQQGIDIKLEMEKRLQDLENQYRKEKEEADLLLEQQRLYADSDSGDDSDKRSCEESWRLISSLREQLPPTTVQTIVKRCGLPSSGKRRAPRRVYQIPQRRRLQGKDPRWATMADLKMQAVKEICYEVALADFRHGRAEIEALAALKMRELCRTYGKPDGPGDAWRAVARDVWDTVGEEEGGGAGSGGGSEEGARGAEVEDLRAHIDKLTGILQEVKLQNSSKDRELQALRDRMLRMERVIPLAQDHEDENEEGGEVPWAPPEGSEAAEEAAPSDRMPSARPPSPPLSSWERVSRLMEEDPAFRRGRLRWLKQEQLRLQGLQGSGGRGGGLRRPPARFVPPHDCKLRFPFKSNPQHRESWPGMGSGEAPTPLQPPEEVTPHPATPARRPPSPRRSHHPRRNSLDGGGRSRGAGSAQPEPQHFQPKKHNSYPQPPQPYPAQRPPGPRYPPYTTPPRMRRQRSAPDLKESGAAV", "dwell time": 16},
      {"binder": "full-length recombinant human KIF1C(P176L)-GFP (natural protein) MAGASVKVAVRVRPFNARETSQDAKCVVSMQGNTTSIINPKQSKDAPKSFTFDYSYWSHTSTEDPQFASQQQVYRDIGEEMLLHAFEGYNVCIFAYGQTGAGKSYTMMGRQEPGQQGIVPQLCEDLFSRVSENQSAQLSYSVEVSYMEIYCERVRDLLNPKSRGSLRVREHPILGLYVQDLSKLAVTSYADIADLMDCGNKARTVAATNMNETSSRSHAVFTIVFTQRCHDQLTGLDSEKVSKISLVDLAGSERADSSGARGMRLKEGANINKSLTTLGKVISALADMQSKKRKSDFIPYRDSVLTWLLKENLGGNSRTAMIAALSPADINYEETLSTLRYADRTKQIRCNAIINEDPNARLIRELQEEVARLRELLMAQGLSASALEGLKTEEGSVRGALPAVSSPPAPVSPSSPTTHNGELEPSFSPNTESQIGPEEAMERLQETEKIIAELNETWEEKLRKTEALRMEREALLAEMGVAVREDGGTVGVFSPKKTPHLVNLNEDPLMSECLLYHIKDGVTRVGQVDMDIKLTGQFIREQHCLFRSIPQPDGEVVVTLEPCEGAETYVNGKLVTEPLVLKSGNRIVMGKNHVFRFNHPEQARLERERGVPPPPGPPSEPVDWNFAQKELLEQQGIDIKLEMEKRLQDLENQYRKEKEEADLLLEQQRLYADSDSGDDSDKRSCEESWRLISSLREQLPPTTVQTIVKRCGLPSSGKRRAPRRVYQIPQRRRLQGKDPRWATMADLKMQAVKEICYEVALADFRHGRAEIEALAALKMRELCRTYGKPDGPGDAWRAVARDVWDTVGEEEGGGAGSGGGSEEGARGAEVEDLRAHIDKLTGILQEVKLQNSSKDRELQALRDRMLRMERVIPLAQDHEDENEEGGEVPWAPPEGSEAAEEAAPSDRMPSARPPSPPLSSWERVSRLMEEDPAFRRGRLRWLKQEQLRLQGLQGSGGRGGGLRRPPARFVPPHDCKLRFPFKSNPQHRESWPGMGSGEAPTPLQPPEEVTPHPATPARRPPSPRRSHHPRRNSLDGGGRSRGAGSAQPEPQHFQPKKHNSYPQPPQPYPAQRPPGPRYPPYTTPPRMRRQRSAPDLKESGAAV", "dwell time": 25.8}
    ]}
  ]
}
